Laboratory results taken from paper PMC12473205, “Characterization of the Soybean GPAT Gene Family Identifies GmGPAT1 as a Key Protein in Salt Stress Tolerance” (Plants, 2025).

Substrate: O=P(O)(O)OC[C@H](O)CO
Experiment: purified protein
Format: biochemical, Glycine max
Conditions: 0.1 M phosphate buffer pH 7.2, acyl-CoA co-substrate not named, methods text mentions membrane protein, conclusions print 36.5 mmol L^-1

B1: GmGPAT1 (Glycine max) (protein)
chain: MSTTGSSAYHCVAHLPNNKTMFMLSTPPTTTFFATPRVLPFLSSKLSSSSSSSTASSSPCCSSITPKVKSKDNNNCYLVSAKHSPANMSASVSSRTFLNARNEQELLAGIRKEVEAGSLPANVAAGMEEVYNNYKSAVIQSGDPKSKEIVLSNMIALLDRIFLDVTDPFVFQPHHKAKREPFDYYVFGQNYIRPLVDFKNSYVGNMPLFIEMEEKLKQGHNIILMSNHQTEADPAIIALLLETRLPYIAENMTYVAGDRVITDPLSKPFSIGRNLICVYSKKHMLDDPALVEMKRNANIRALKEMAMLLRSGSQIVWIAPSGGRDRPDPHTGEWAPAPFDTSSVDNMRRLVEHSGPPGHVYPLAILCHDIMPPPLKVEKEIGEKRIISFHGTGISVAPALSFSETTATSENPEKAKEVFTKALYDSVTEQYNVLKSAIHGKKGFEASTPVVSLSQSWK
Km: 36.47 mM
